From IntAct's records for PubMed 32296183

B1: Golgi SNAP receptor complex member 2 (Homo sapiens), O14653 (parent)
chain: MDPLFQQTHKQVHEIQSCMGRLETADKQSVHIVENEIQASIDQIFSRLERLEILSSKEPPNKRQNARLRVDQLKYDVQHLQTALRNFQHRRHAREQQERQREELLSRTFTTNDSDTTIPMDESLQFNSSLQKVHNGMDDLILDGHNILDGLRTQRLTLKGTQKKILDIANMLGLSNTVMRLIEKRAFQDKYFMIGGMLLTCVVMFLVVQYLT
partner: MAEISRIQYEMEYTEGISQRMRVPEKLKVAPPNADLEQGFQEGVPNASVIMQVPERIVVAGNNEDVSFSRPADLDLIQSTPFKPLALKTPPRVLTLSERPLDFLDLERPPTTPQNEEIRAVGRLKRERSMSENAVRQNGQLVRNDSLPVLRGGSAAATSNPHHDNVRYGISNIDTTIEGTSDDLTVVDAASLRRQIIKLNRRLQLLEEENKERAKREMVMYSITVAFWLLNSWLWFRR
B2: Catenin alpha-3 (Homo sapiens), Q9UI47-2 (parent)
chain: MSAETPITLNIDPQDLQVQTFTVEKLLEPLIIQVTTLVNCPQNPSSRKKGRSKRASVLLASVEEATWNLLDKGEKIAQEATVLKDELTASLEEVRKESEALKVSAERFTDDPCFLPKREAVVQAARALLAAVTRLLILADMIDVMCLLQHVSAFQRTFESLKNVANKSDLQKTYQKLGKELENLDYLAFKRQQDLKSPNQRDEIAGARASLKENSPLLHSICSACLEHSDVASLKASKDTVCEEIQNALNVISNASQGIQNMTTPPEPQAATLGSALDELENLIVLNPLTVTEEEIRPSLEKRLEAIISGAALLADSSCTRDLHRERIIAECNAIRQALQDLLSEYMNNAGKKERSNTLNIALDNMCKKTRDLRRQLRKAIIDHVSDSFLDTTVPLLVLIEAAKNGREKEIKEYAAIFHEHTSRLVEVANLACSMSTNEDGIKIVKIAANHLETLCPQIINAALALAARPKSQAVKNTMEMYKRTWENHIHVLTEAVDDITSIDDFLAVSGMFLFF
partner: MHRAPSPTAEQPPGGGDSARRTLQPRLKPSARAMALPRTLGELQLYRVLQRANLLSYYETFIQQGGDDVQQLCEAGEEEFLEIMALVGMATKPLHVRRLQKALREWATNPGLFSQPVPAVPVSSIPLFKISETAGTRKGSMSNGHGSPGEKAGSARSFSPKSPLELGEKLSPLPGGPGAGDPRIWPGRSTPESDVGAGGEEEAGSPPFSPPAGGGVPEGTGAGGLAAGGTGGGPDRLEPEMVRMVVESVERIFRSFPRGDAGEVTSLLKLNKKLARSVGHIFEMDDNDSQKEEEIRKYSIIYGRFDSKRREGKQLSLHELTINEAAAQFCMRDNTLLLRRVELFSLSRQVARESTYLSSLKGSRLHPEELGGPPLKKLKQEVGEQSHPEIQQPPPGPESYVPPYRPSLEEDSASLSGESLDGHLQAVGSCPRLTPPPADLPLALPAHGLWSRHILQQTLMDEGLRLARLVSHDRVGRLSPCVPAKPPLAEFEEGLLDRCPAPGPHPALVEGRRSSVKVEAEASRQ
B3: Succinate--CoA ligase [ADP-forming] subunit beta, mitochondrial (Homo sapiens), Q9P2R7 (parent)
chain: MAASMFYGRLVAVATLRNHRPRTAQRAAAQVLGSSGLFNNHGLQVQQQQQRNLSLHEYMSMELLQEAGVSVPKGYVAKSPDEAYAIAKKLGSKDVVIKAQVLAGGRGKGTFESGLKGGVKIVFSPEEAKAVSSQMIGKKLFTKQTGEKGRICNQVLVCERKYPRREYYFAITMERSFQGPVLIGSSHGGVNIEDVAAESPEAIIKEPIDIEEGIKKEQALQLAQKMGFPPNIVESAAENMVKLYSLFLKYDATMIEINPMVEDSDGAVLCMDAKINFDSNSAYRQKKIFDLQDWTQEDERDKDAAKANLNYIGLDGNIGCLVNGAGLAMATMDIIKLHGGTPANFLDVGGGATVHQVTEAFKLITSDKKVLAILVNIFGGIMRCDVIAQGIVMAVKDLEIKIPVVVRLQGTRVDDAKALIADSGLKILACDDLDEAARMVVKLSEIVTLAKQAHVDVKFQLPI
partner: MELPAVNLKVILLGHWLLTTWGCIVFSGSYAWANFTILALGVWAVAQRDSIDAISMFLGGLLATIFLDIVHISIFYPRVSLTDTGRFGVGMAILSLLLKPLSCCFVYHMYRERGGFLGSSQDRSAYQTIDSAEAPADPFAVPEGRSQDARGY
B4: Ceroid-lipofuscinosis neuronal protein 6 (Homo sapiens), Q9NWW5 (parent)
chain: MEATRRRQHLGATGGPGAQLGASFLQARHGSVSADEAARTAPFHLDLWFYFTLQNWVLDFGRPIAMLVFPLEWFPLNKPSVGDYFHMAYNVITPFLLLKLIERSPRTLPRSITYVSIIIFIMGASIHLVGDSVNHRLLFSGYQHHLSVRENPIIKNLKPETLIDSFELLYYYDEYLGHCMWYIPFFLILFMYFSGCFTASKAESLIPGPALLLVAPSGLYYWYLVTEGQIFILFIFTFFAMLALVLHQKRKRLFLDSNGLFLFSSFALTLLLVALWVAWLWNDPVLRKKYPGVIYVPEPWAFYTLHVSSRH

Variants of: B1
Details: with MFF

| Variant | effect of a mutation on the interaction |
| --- | --- |
| MDPLFQQTHKQVHEIQSCMGRLETADKQSVHIVENEIQASIDQIFSRLERLEILSSKEPPNKRQNARLRVDQLKYDVQHLQTALRNFQHRRHAREQQERQREELLSRTFTTNDSDTTIPMDESLQFNSSLQKVHNGMDDLILDWHNILDGLRTQRLTLKGTQKKILDIANMLGLSNTVMRLIEKRAFQDKYFMIGGMLLTCVVMFLVVQYLT [G144W] | disrupting interaction strength |

Variants of: B2
Details: with nab2_human NAB2, Q15742

| Variant | effect of a mutation on the interaction |
| --- | --- |
| MSAETPITLNIDPQDLQVQTFTVEKLLEPLIIQVTTLVNCPQNPSSRKKGRSKRASVLLASVEEATWNLLDKGEKIAQEATVLKDELTASLEEDRKESEALKVSAERFTDDPCFLPKREAVVQAARALLAAVTRLLILADMIDVMCLLQHVSAFQRTFESLKNVANKSDLQKTYQKLGKELENLDYLAFKRQQDLKSPNQRDEIAGARASLKENSPLLHSICSACLEHSDVASLKASKDTVCEEIQNALNVISNASQGIQNMTTPPEPQAATLGSALDELENLIVLNPLTVTEEEIRPSLEKRLEAIISGAALLADSSCTRDLHRERIIAECNAIRQALQDLLSEYMNNAGKKERSNTLNIALDNMCKKTRDLRRQLRKAIIDHVSDSFLDTTVPLLVLIEAAKNGREKEIKEYAAIFHEHTSRLVEVANLACSMSTNEDGIKIVKIAANHLETLCPQIINAALALAARPKSQAVKNTMEMYKRTWENHIHVLTEAVDDITSIDDFLAVSGMFLFF [V94D] | disrupting interaction strength |

Variants of: B3
Details: with AGTRAP

| Variant | effect of a mutation on the interaction |
| --- | --- |
| MAASMFYGRLVAVATLRNHRPRTAQRAAAQVLGSSGLFNNHGLQVQQQQQRNLSLHEYMSMELLQEAGVSVPKGYVAKSPDEAYAIAKKLGSKDVVIKAQVLAGGRGKGTFESGLKGRVKIVFSPEEAKAVSSQMIGKKLFTKQTGEKGRICNQVLVCERKYPRREYYFAITMERSFQGPVLIGSSHGGVNIEDVAAESPEAIIKEPIDIEEGIKKEQALQLAQKMGFPPNIVESAAENMVKLYSLFLKYDATMIEINPMVEDSDGAVLCMDAKINFDSNSAYRQKKIFDLQDWTQEDERDKDAAKANLNYIGLDGNIGCLVNGAGLAMATMDIIKLHGGTPANFLDVGGGATVHQVTEAFKLITSDKKVLAILVNIFGGIMRCDVIAQGIVMAVKDLEIKIPVVVRLQGTRVDDAKALIADSGLKILACDDLDEAARMVVKLSEIVTLAKQAHVDVKFQLPI [G118R] | disrupting interaction strength |
| MAASMFYGRLVAVATLRNHRPRTAQRAAAQVLGSSGLFNNHGLQVQQQQQRNLSLHEYMSMELLQEAGVSVPKGYVAKSPDEAYAIAKKLGSKDVVIKAQVLAGGRGKGTFESGLKGGVKIVFSPEEAKAVSSQMIGKKLFTKQTGEKGRICNQVLVCERKYPRREYYFAITMERSFQGPVLIGSSHGGVNIEDVAAESPEAIIKEPIDIEEGIKKEQALQLAQKMGFPPNIVESAAENMVKLYSLFLKYNATMIEINPMVEDSDGAVLCMDAKINFDSNSAYRQKKIFDLQDWTQEDERDKDAAKANLNYIGLDGNIGCLVNGAGLAMATMDIIKLHGGTPANFLDVGGGATVHQVTEAFKLITSDKKVLAILVNIFGGIMRCDVIAQGIVMAVKDLEIKIPVVVRLQGTRVDDAKALIADSGLKILACDDLDEAARMVVKLSEIVTLAKQAHVDVKFQLPI [D251N] | disrupting interaction strength |

Variants of: B4
Details: with stx1a_human STX1A

| Variant | effect of a mutation on the interaction |
| --- | --- |
| MEATRTRQHLGATGGPGAQLGASFLQARHGSVSADEAARTAPFHLDLWFYFTLQNWVLDFGRPIAMLVFPLEWFPLNKPSVGDYFHMAYNVITPFLLLKLIERSPRTLPRSITYVSIIIFIMGASIHLVGDSVNHRLLFSGYQHHLSVRENPIIKNLKPETLIDSFELLYYYDEYLGHCMWYIPFFLILFMYFSGCFTASKAESLIPGPALLLVAPSGLYYWYLVTEGQIFILFIFTFFAMLALVLHQKRKRLFLDSNGLFLFSSFALTLLLVALWVAWLWNDPVLRKKYPGVIYVPEPWAFYTLHVSSRH [R6T] | with no effect |

Variants of: B4
Details: with ar13b_human ARL13B

| Variant | effect of a mutation on the interaction |
| --- | --- |
| MEATRTRQHLGATGGPGAQLGASFLQARHGSVSADEAARTAPFHLDLWFYFTLQNWVLDFGRPIAMLVFPLEWFPLNKPSVGDYFHMAYNVITPFLLLKLIERSPRTLPRSITYVSIIIFIMGASIHLVGDSVNHRLLFSGYQHHLSVRENPIIKNLKPETLIDSFELLYYYDEYLGHCMWYIPFFLILFMYFSGCFTASKAESLIPGPALLLVAPSGLYYWYLVTEGQIFILFIFTFFAMLALVLHQKRKRLFLDSNGLFLFSSFALTLLLVALWVAWLWNDPVLRKKYPGVIYVPEPWAFYTLHVSSRH [R6T] | with no effect |

Variants of: B4
Details: with cxa8_human GJA8, P48165
cxa8_human GJA8, P48165, sequence (P48165 whole entry): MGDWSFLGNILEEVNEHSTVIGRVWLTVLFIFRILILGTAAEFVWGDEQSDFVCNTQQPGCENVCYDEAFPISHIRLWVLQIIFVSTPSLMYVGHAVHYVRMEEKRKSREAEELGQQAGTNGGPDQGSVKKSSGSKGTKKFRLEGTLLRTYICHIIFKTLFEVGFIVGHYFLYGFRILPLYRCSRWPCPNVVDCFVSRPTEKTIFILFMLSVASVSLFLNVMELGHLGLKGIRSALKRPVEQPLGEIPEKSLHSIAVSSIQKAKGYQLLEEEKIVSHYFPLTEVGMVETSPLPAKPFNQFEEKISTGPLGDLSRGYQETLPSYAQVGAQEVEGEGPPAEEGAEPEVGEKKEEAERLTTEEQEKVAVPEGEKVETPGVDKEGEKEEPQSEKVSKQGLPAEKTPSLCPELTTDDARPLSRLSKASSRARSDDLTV

| Variant | effect of a mutation on the interaction |
| --- | --- |
| MEATRTRQHLGATGGPGAQLGASFLQARHGSVSADEAARTAPFHLDLWFYFTLQNWVLDFGRPIAMLVFPLEWFPLNKPSVGDYFHMAYNVITPFLLLKLIERSPRTLPRSITYVSIIIFIMGASIHLVGDSVNHRLLFSGYQHHLSVRENPIIKNLKPETLIDSFELLYYYDEYLGHCMWYIPFFLILFMYFSGCFTASKAESLIPGPALLLVAPSGLYYWYLVTEGQIFILFIFTFFAMLALVLHQKRKRLFLDSNGLFLFSSFALTLLLVALWVAWLWNDPVLRKKYPGVIYVPEPWAFYTLHVSSRH [R6T] | with no effect |

Variants of: B4
Details: with cd79a_human CD79A

| Variant | effect of a mutation on the interaction |
| --- | --- |
| MEATRTRQHLGATGGPGAQLGASFLQARHGSVSADEAARTAPFHLDLWFYFTLQNWVLDFGRPIAMLVFPLEWFPLNKPSVGDYFHMAYNVITPFLLLKLIERSPRTLPRSITYVSIIIFIMGASIHLVGDSVNHRLLFSGYQHHLSVRENPIIKNLKPETLIDSFELLYYYDEYLGHCMWYIPFFLILFMYFSGCFTASKAESLIPGPALLLVAPSGLYYWYLVTEGQIFILFIFTFFAMLALVLHQKRKRLFLDSNGLFLFSSFALTLLLVALWVAWLWNDPVLRKKYPGVIYVPEPWAFYTLHVSSRH [R6T] | with no effect |

Variants of: B4
Details: with ki2l3_human KIR2DL3, P43628
ki2l3_human KIR2DL3, P43628, sequence (P43628 whole entry): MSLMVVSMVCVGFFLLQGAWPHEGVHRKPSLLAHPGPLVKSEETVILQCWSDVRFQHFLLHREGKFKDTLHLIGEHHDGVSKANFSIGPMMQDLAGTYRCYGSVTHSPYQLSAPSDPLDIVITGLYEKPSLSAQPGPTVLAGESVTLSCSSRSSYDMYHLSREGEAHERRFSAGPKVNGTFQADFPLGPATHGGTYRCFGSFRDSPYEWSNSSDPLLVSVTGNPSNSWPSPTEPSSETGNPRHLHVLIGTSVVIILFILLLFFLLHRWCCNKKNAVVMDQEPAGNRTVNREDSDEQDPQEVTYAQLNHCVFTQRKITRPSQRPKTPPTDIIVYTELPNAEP

| Variant | effect of a mutation on the interaction |
| --- | --- |
| MEATRTRQHLGATGGPGAQLGASFLQARHGSVSADEAARTAPFHLDLWFYFTLQNWVLDFGRPIAMLVFPLEWFPLNKPSVGDYFHMAYNVITPFLLLKLIERSPRTLPRSITYVSIIIFIMGASIHLVGDSVNHRLLFSGYQHHLSVRENPIIKNLKPETLIDSFELLYYYDEYLGHCMWYIPFFLILFMYFSGCFTASKAESLIPGPALLLVAPSGLYYWYLVTEGQIFILFIFTFFAMLALVLHQKRKRLFLDSNGLFLFSSFALTLLLVALWVAWLWNDPVLRKKYPGVIYVPEPWAFYTLHVSSRH [R6T] | with no effect |

Variants of: B4
Details: with lrc25_human LRRC25, Q8N386
lrc25_human LRRC25, Q8N386, sequence (Q8N386 whole entry): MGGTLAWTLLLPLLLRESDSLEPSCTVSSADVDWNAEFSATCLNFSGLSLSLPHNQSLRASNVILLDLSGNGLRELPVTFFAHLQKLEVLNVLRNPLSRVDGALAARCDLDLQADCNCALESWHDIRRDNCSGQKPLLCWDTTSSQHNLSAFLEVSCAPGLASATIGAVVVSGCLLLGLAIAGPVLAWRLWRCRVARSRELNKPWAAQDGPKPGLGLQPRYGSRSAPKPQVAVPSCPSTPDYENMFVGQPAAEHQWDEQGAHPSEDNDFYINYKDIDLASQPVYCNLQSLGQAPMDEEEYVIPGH

| Variant | effect of a mutation on the interaction |
| --- | --- |
| MEATRTRQHLGATGGPGAQLGASFLQARHGSVSADEAARTAPFHLDLWFYFTLQNWVLDFGRPIAMLVFPLEWFPLNKPSVGDYFHMAYNVITPFLLLKLIERSPRTLPRSITYVSIIIFIMGASIHLVGDSVNHRLLFSGYQHHLSVRENPIIKNLKPETLIDSFELLYYYDEYLGHCMWYIPFFLILFMYFSGCFTASKAESLIPGPALLLVAPSGLYYWYLVTEGQIFILFIFTFFAMLALVLHQKRKRLFLDSNGLFLFSSFALTLLLVALWVAWLWNDPVLRKKYPGVIYVPEPWAFYTLHVSSRH [R6T] | with no effect |

Variants of: B4
Details: with tm139_human TMEM139, Q8IV31
tm139_human TMEM139, Q8IV31, sequence (Q8IV31 whole entry): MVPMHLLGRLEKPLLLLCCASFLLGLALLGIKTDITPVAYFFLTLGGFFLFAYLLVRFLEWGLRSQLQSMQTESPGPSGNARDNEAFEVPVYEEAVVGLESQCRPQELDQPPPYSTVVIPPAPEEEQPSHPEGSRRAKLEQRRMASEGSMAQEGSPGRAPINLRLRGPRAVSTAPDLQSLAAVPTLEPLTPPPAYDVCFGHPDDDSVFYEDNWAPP

| Variant | effect of a mutation on the interaction |
| --- | --- |
| MEATRTRQHLGATGGPGAQLGASFLQARHGSVSADEAARTAPFHLDLWFYFTLQNWVLDFGRPIAMLVFPLEWFPLNKPSVGDYFHMAYNVITPFLLLKLIERSPRTLPRSITYVSIIIFIMGASIHLVGDSVNHRLLFSGYQHHLSVRENPIIKNLKPETLIDSFELLYYYDEYLGHCMWYIPFFLILFMYFSGCFTASKAESLIPGPALLLVAPSGLYYWYLVTEGQIFILFIFTFFAMLALVLHQKRKRLFLDSNGLFLFSSFALTLLLVALWVAWLWNDPVLRKKYPGVIYVPEPWAFYTLHVSSRH [R6T] | with no effect |
